# Laboratory results as given in patent US10076576B2, “Minimally toxic prodrugs” (priority 2012, dated 2018).
# Several values for one entry are separate records, joined by “and”; a condition that tells them apart may be missing. Identical values can stand only once. Entries after “also recorded” stand apart in the source; their conditions may differ.
# Assays:
# [1] = mouse, in vivo, iv, 86.2 umol/kg
# Method: Time evolution of plasma concentration (A, B) and of cardiac tissue concentration (C, D) of Doxorubicin or PhAc-ALGP-Dox and its metabolites after i.v. bolus injection to OF-1 female wild type mice at the dose of 86.2 μmol/kg. Results represent the mean concentration±SD (n=3).
# Pharmacokinetic tissue distribution studies were performed using OF-1 mice. […] At different time points after drug administration (5 min, 30 min, 1 h, 4 h, 7 h, 16 h and 24 h) 3 mice per group were sacrificed by cervical dislocation and blood and heart tissue were collected. Hearts were incised and rinsed carefully in phosphate buffer saline (to eliminate blood in the cardiac cavities), dried on paper and frozen in liquid nitrogen. They were stored until analysis. Blood samples were centrifuged (10 min, 2000 g, 4° C.) to separate the plasma fraction, which was stored for analysis. The hearts were homogenized with an Ultraturrax homogenizer in 1.5 mL water. The protein concentration was measured using the microBCA protein assay (Pierce). The drug tissue quantification was made by HPLC after extraction: 150 μL of acetonitrile was added to the 50 μL samples. Samples were vortexed and centrifuged for 10 min at 13 000 rpm at room temperature. Supernatant was collected. Samples were buffered by addition of 200 mM formiate buffer pH 4.5 (1 V sample supernatant+3 V buffer) before HPLC analysis (fluo detection ex=235 nm em=560 nm).
# [2] = molecular target: T1, CD10 (recombinant human neprilysin) (Homo sapiens, UniProt P08473); assay: Reactivation assay with purified CD10; format: biochemical; details: 3 h at 37° C., 50 μM compound
# T1 construct: purchased R&D systems 1182-ZN
# FAP = molecular target: T2, FAP (Homo sapiens, UniProt Q12884); assay: Reactivation assay with purified FAP; format: biochemical
# T2 sequence (Q12884 1-760): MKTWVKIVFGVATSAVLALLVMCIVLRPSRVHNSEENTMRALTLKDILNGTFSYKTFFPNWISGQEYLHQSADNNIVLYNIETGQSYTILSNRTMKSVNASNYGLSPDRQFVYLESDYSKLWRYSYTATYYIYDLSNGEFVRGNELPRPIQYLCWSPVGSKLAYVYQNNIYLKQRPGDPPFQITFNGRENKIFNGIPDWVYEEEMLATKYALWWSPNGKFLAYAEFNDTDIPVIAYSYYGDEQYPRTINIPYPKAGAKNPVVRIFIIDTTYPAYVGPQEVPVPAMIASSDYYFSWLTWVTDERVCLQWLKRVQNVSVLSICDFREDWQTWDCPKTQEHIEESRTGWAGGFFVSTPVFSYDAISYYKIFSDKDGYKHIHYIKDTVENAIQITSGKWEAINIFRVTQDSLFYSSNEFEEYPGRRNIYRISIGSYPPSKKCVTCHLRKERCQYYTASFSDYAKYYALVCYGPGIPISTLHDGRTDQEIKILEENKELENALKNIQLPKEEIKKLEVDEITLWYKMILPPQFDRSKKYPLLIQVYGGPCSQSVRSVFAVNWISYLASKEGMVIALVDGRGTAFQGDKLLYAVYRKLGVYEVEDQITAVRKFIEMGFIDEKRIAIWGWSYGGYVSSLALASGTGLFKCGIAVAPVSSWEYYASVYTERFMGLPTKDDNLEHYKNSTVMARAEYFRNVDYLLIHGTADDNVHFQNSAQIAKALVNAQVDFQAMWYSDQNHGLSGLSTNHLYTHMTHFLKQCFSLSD
# Method: TOP (recombinant human thimet oligopeptidase, R&D systems, Ref 3439-ZN) was diluted at 10 nM in a solution of 50 mM Tris-HCl pH 7.4/0.5M NaCl/0.1M DTT. CD26 and FAP were diluted at 1 μg/mL in a Tris-HCl pH 7.5 buffer. Reactions were initiated by addition of 50 μM of each compound to enzymes solutions (1 V enzyme solution+1 V 100 μM drug solution). Samples were incubated for 0, 1, or 3 hours at 37° C. in a water bath in the presence of purified enzymes. Fifty μL of sample were collected at each time point and processed as described above for human plasma. Activation of Suc-βALAL-dox was tested in parallel as a reference.
# [3] = In vivo toxicity after single iv bolus injection (body weight); set-up: species or system OF-1 mice
# Method: FIG. 1. Effect of PhAc-peptide-Dox conjugates on the body weight of OF-1 normal mice (n=4). […] Results represent the mean body weight evolution.
# The in vivo toxicity was evaluated by monitoring body weight.
# [4] = In vitro cytotoxicity on Cor.At cardiomyocytes (neutral red uptake); format: cell-based, mouse; details: mouse, 20 μg/ml
# Method: (§1) FIG. 5. In vitro cellular toxicity of PhAc-ALGP-Dox and Doxorubicin on Cor.At® cells (mouse embryonic stem cell derived cardiomyocytes). As non-specific control, the test was also performed on inactivated mouse embryonic fibroblasts (MEF). Cells were cultured for 48 h in the presence of drugs and a neutral red uptake test was performed to determine cell viability. Results represent the cytotoxicity curves. The IC50 values were calculated from the cytotoxicity curves using the Prism GraphPad software 5.0.
# (§2) The in vitro cardiotoxicity test was carried out in a relevant and predictive in vitro model for cardiac safety screening in early lead optimization using mouse embryonic stem cell derived cardiomyocytes (Cor.At®, Axiogenesis (Germany)). Cor.At® cardiomyocytes provide a standardized, homogenous and reproducible cell system for the in vitro classification of a compound's cardio-cytotoxic potential. After incubation with test compounds, the neutral red uptake test was used to determine effects which directly affect the viability and integrity of cardiac cells when compared to a non-specific reference cell type, e.g. mouse fibroblasts (MEF).
# [5] = In vitro cytotoxicity on control fibroblasts (neutral red uptake); format: cell-based, mouse; details: mouse, inactivated mouse embryonic fibroblasts (MEF), 20 μg/ml
# Method: as §1, §2
# [6] = system: LoVo colon carcinoma xenografts; assay: Activation at the tumor site after single iv bolus, LoVo xenograft; format: in vivo, NMRI nude mice; details: 24 hours after single iv injection, 15-620 μmol/kg
# Method: FIG. 6. PhAc-ALGP-Dox was administered at increasing concentrations (15, 35, 50, 100, 200, 300, 460, 620 μmol/kg) by intravenous injection to NMRI nude mice bearing LoVo colon carcinoma xenografts (3 mice per group). After 24 hours, mice were sacrificed and tumors were collected. Doxorubicin tumor concentration was determined after extraction by HPLC analysis. Results represent the average Doxorubicin tumor concentration (pmol/mg protein)±SD.
# Drugs or controls were administered four weeks after subcutaneous implantation of the xenograft. […] The PhAc-ALGP-Dox conjugate was dissolved in saline at increasing doses (1.5, 3.5, 5, 10, 20, 30, 46, and 62 mM). […] Twenty-four hours after injection, mice were sacrificed by cervical dislocation and tumors were collected, rinsed in phosphate buffer saline and homogenized. An extraction of drugs from tumor homogenates was performed with acetonitrile and Doxorubicin present in tumors was quantified by HPLC analysis.
# T1 sequence (P08473 52-750 limits assumed): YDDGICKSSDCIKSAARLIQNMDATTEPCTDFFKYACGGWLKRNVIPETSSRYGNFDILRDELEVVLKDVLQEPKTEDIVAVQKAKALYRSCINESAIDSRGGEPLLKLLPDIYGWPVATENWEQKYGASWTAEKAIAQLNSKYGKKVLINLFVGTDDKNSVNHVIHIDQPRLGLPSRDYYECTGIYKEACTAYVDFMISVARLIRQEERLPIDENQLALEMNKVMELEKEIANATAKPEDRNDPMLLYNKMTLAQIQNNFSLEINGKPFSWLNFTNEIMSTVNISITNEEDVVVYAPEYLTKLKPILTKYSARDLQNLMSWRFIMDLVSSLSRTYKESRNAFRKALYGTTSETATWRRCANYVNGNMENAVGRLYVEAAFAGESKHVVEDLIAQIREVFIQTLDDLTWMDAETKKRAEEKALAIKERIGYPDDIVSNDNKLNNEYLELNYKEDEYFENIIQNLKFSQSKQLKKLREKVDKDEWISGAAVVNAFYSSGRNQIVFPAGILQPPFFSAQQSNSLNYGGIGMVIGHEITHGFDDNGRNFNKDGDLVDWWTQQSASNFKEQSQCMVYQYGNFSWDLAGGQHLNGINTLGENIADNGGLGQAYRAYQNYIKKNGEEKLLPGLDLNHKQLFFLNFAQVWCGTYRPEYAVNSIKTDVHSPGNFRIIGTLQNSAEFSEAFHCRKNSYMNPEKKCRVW
SMILES,Heart AUC of Dox [1] [pmol · h/mg protein],% Metabolites released after 3 h (CD10 10 nM) [2],hydrolysis by FAP (in words) (FAP),"maximum body weight loss ([3]; 240 μmol/kg single iv, day 28) [%]",body weight loss (in words) ([3]; 320 μmol/kg single iv),mortality ([3]; 320 μmol/kg single iv),tolerability (in words) ([3]; 240 and 320 μmol/kg single iv),"MTD ([3]; OF-1, mouse, in vivo, single iv bolus injection, read-out: maximum tolerated dose (MTD)) [µmol/kg]",times less toxic than Dox ([3]; after one intravenous injection),"viability at 48 h, 20 µg/mL [4] [%]","viability at 48 h, 20 µg/mL [5] [%]",injected dose at which Dox tumor concentration reaches a plateau [6] [µmol/kg]
"COc1cccc2c1C(=O)c1c(O)c3c(c(O)c1C2=O)C[C@@](O)(C(=O)CO)C[C@@H]3O[C@H]1C[C@H](N)[C@H](O)[C@H](C)O1 [Doxorubicin, reference compound]",5863,,,,,,,,,,,
"COc1cccc2c1C(=O)c1c(O)c3c(c(O)c1C2=O)CC(O)(C(=O)CO)CC3OC1CC(NC(=O)C2CCCN2C(=O)CNC(=O)C(CC(C)C)NC(=O)C(C)NC(=O)CP(=O)(O)O)C(O)C(C)O1 (stereo not drawn) [PhAc-ALGP-Dox, PhAc-ALGP-doxorubicin]",,25% and 25 ± 4%,Neither CD26 nor FAP hydrolized; also recorded: did not hydrolyze,15,significant body weight loss,one mouse was found dead at day 12,well tolerated,240 to 320,at least 6 times,37,81,200
